Publication PMC5150656, “Detecting stoichiometry of macromolecular complexes in live cells using FRET” (Nature Communications, 2016)

B1: EYFP tagged myosin Va two tandem IQ domain peptide (IQ5-6) (domain or fragment)
chain: REYKAVIIQKRVRGWLARTHYKRTMKAIVYLQCCFRRMMAKRELKKLKIEARSVERYKK
notes: mouse myosin Va neck domain, two tandem IQ domains IQ5-6, residues R862-K920 (Uniprot Q99104); A three amino-acid linker 'AAA' joins EYFP with the peptide; source: HEK293, transiently transfected, in live cells
B2: EYFP-tagged full length myosin Va neck domain peptide containing six IQ domains (IQ1-6) (domain or fragment)
chain: LRAACIRIQKTIRGWLLRKRYLCMQRAAITVQRYVRGYQARCYAKFLRRTKAATTIQKYWRMYVVRRRYKIRRAATIVIQSYLRGYLTRNRYRKILREYKAVIIQKRVRGWLARTHYKRTMKAIVYLQCCFRRMMAKRELKKLKIEARSVERYKK
notes: mouse myosin Va full length neck domain, six tandem IQ domains IQ1-6, residues L766-K920 (Uniprot Q99104); A three amino-acid linker 'AAA' joins EYFP with the peptide; source: HEK293, transiently transfected, in live cells
B3: EYFP tagged myosin Va peptide containing a single IQ domain (IQ6) (domain or fragment)
chain: TMKAIVYLQCCFRRMMAKRELKKLKIEARSVERYKK
notes: mouse myosin Va neck domain, single IQ domain IQ6, residues T885-K920 (Uniprot Q99104); A three amino-acid linker 'AAA' joins EYFP with the peptide; also called EYFP-tagged IQ6 peptide; source: HEK293, transiently transfected, in live cells
B4: EYFP tagged myosin Va five tandem IQ domain truncation (IQ2-6) (domain or fragment)
chain: MQRAAITVQRYVRGYQARCYAKFLRRTKAATTIQKYWRMYVVRRRYKIRRAATIVIQSYLRGYLTRNRYRKILREYKAVIIQKRVRGWLARTHYKRTMKAIVYLQCCFRRMMAKRELKKLKIEARSVERYKK
notes: mouse myosin Va neck domain, five tandem IQ domains IQ2-6, residues M789-K920 (Uniprot Q99104); A three amino-acid linker 'AAA' joins EYFP with the peptide; source: HEK293, transiently transfected, in live cells
B5: EYFP tagged myosin Va four tandem IQ domain peptide (IQ3-6) (domain or fragment)
chain: RTKAATTIQKYWRMYVVRRRYKIRRAATIVIQSYLRGYLTRNRYRKILREYKAVIIQKRVRGWLARTHYKRTMKAIVYLQCCFRRMMAKRELKKLKIEARSVERYKK
notes: mouse myosin Va neck domain, four tandem IQ domains IQ3-6, residues R814-K920 (Uniprot Q99104); A three amino-acid linker 'AAA' joins EYFP with the peptide; source: HEK293, transiently transfected, in live cells
B6: EYFP tagged myosin Va three tandem IQ domain peptide (IQ4-6) (domain or fragment)
chain: RRAATIVIQSYLRGYLTRNRYRKILREYKAVIIQKRVRGWLARTHYKRTMKAIVYLQCCFRRMMAKRELKKLKIEARSVERYKK
notes: mouse myosin Va neck domain, three tandem IQ domains IQ4-6, residues R837-K920 (Uniprot Q99104); A three amino-acid linker 'AAA' joins EYFP with the peptide; source: HEK293, transiently transfected, in live cells

target: T1, ECFP-tagged calmodulin (CaM) (UniProt P0DP23 1-149); assay: FRET or BRET; FRET 2-hybrid (3^3-FRET and E-FRET) in single live HEK293 cells, room temperature, basal (resting) Ca2+: Tyrode's bath with 2 mM Ca2+; relative (effective) dissociation constants Kd,EFF; stoichiometry ratio ν = EA,max/ED,max; conditions: partners not purified
T1 construct: calmodulin (CaM); also called ECFP-CaM; ECFP fused CaM; source: HEK293, transiently transfected, in live cells

Row | Kd [nM] | Binder
1 | ~25 | B1
2 | ~25 | B2
3 | ~25 | B3
4 | ~25 | B4
5 | ~25 | B5
6 | ~25 | B6
